Assay results from the nanobody polyreactivity screen of Harvey et al. (2022).

Experiment: yeast display, Sf9 membrane polyspecificity reagent, FACS + sequencing; frameworks hold sequencing errors
Method in brief: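 Nanobodies from a synthetic yeast display library (Saccharomyces cerevisiae BJ5465), induced 36–48 hours with galactose, were stained 1 hour at 4 °C with 10% biotinylated, detergent-solubilized Sf9 membrane reagent, enriched on streptavidin microbeads, then FACS-sorted. Anti-HA (expression) and streptavidin (reagent binding) fluorescence set low and high (top ~1%) gates. Polyreactivity labels come from the gate of origin. Genes were colony-PCR amplified, MiSeq 2 × 250 sequenced and filtered by CDR length.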

**Q.** For “QVQLVESGGGLVQAGGSLRLSCAASGRIFRYYAMGWYRQAPGKERELVAAISTAGSTYYADSVMGRFTISRDNAKNTVYLQMNSLKPEDTAVYFCAARTYRSVYGPEYGYWGQGTQVTVSS”, which “polyreactivity (PSR sort gate)” value is on record?
**A.** The value was “high polyreactivity”.

**Q.** With “QVQLVESGGGLVQAGGSLRLSCAASGRIFRYYAMGWYRQAPGKERELVAAITKNGGSTYYADSVKRRFTISRDNAKNTVYLQMNSLKPEDTAVYYCAAARLGNYDYWGQGTQVTVSS” as the sequence, how does the “polyreactivity (PSR sort gate)” value read?
**A.** The value was “high polyreactivity”.

**Q.** Which “polyreactivity (PSR sort gate)” value does the source give for “QVQLVESGGGLVQAGGSLRLSCAASGRIFRYYAMGWYRQAPGKERELVAAITRGGRTNYADSVKGRFTISRDNAKNTVYLQMNSLKQEDTAFYYCAARNVFQSVHVRGGYWGQGTQVTVSS” here?
**A.** Its value is “high polyreactivity”.

**Q.** For “QVQLVESGGGLVQAGGSLRLSCAASGRIFRYYAMGWYRQAPGKERELVAAITWRGSSTYYADSVKGRFTISRDNAKNTVYLQMNSLKPEDTAVYYCNKLRSPHGYIRPGYDYWGQGTQVTVSS”, which “polyreactivity (PSR sort gate)” value is on record?
**A.** The value was “high polyreactivity”.

**Q.** Which “polyreactivity (PSR sort gate)” value does the source give for “QVQLVESGGGLVQAGGSLRLSCAASGRIFRYYAMGWYRQAPGKERELVARITNGAITNYADSVKGRFTISRDNAKNTVYLQMNSLKPEDTAVYYCAADPWYTLSVPSGYDYWGQGTQVTVSS” here?
**A.** The value was “high polyreactivity”.

**Q.** With “QVQLVESGGGLVQAGGSLRLSCAASGRIFRYYAMGWYRQAPGKERELVASITRRGGSTYYADSVKGRFTISRDNAKNTVYLQMNSLKPEDTAVYYCVGDTYYNLGNYWGQGTQVTVSS” as the sequence, how does the “polyreactivity (PSR sort gate)” value read?
**A.** The value was “high polyreactivity”.

**Q.** With “QVQLVESGGGLVQAGGSLRLSCAASGRIFRYYAMGWYRQAPGKERELVATISSSGGSTYYADSVKGRFTISRDNAKNTVYLQMNSLKPEDTAVYYCAADWYGYRQFHGYYWGQGTQVTVSS” as the sequence, how does the “polyreactivity (PSR sort gate)” value read?
**A.** The value was “high polyreactivity”.

**Q.** With “QVQLVESGGGLVQAGGSLRLSCAASGRIFRYYAMGWYRQEPGKERELVAVITRGTSTKYADSVKGRFTISRDNAKITVYLQMNSLKPEDTAVYYCAADYWYANVGFDYWGQGTQVTVSS” as the sequence, how does the “polyreactivity (PSR sort gate)” value read?
**A.** The value was “high polyreactivity”.

**Q.** Which “polyreactivity (PSR sort gate)” value does the source give for “QVQLVESGGGLVQAGGSLRLSCAASGRIFRYYDMGWYRPAPGTERELVAAITSDGSTKYADSVKGRFTISRDNAKNTVYLQMNSLKPEDTAVYYCNAEVLPTWYSPQLDYWGQGTQVTVSS” here?
**A.** Its value is “low polyreactivity”.

**Q.** Which “polyreactivity (PSR sort gate)” value does the source give for “QVQLVESGGGLVQAGGSLRLSCAASGRIFRYYSMGWYRQAPGKERELVAAISRSGSTNYADSVKGRFTISRDNAKNTVYFQMNSLKPEDTAVYYCAADSNYLYFWRRYKRMDYWGQGTQVTVSS” here?
**A.** Its value is “high polyreactivity”.

**Q.** For “QVQLVESGGGLVQAGGSLRLSCAASGRIFRYYTMGWYRQAPGKEREFVAAITLSGGRTYYADSVKGRFTISRDNAKNTVYLQMNSLKPEDTAVYYCAAYDRITRYDYWGQGTQVTVSS”, which “polyreactivity (PSR sort gate)” value is on record?
**A.** Its value is “high polyreactivity”.

**Q.** Which “polyreactivity (PSR sort gate)” value does the source give for “QVQLVESGGGLVQAGGSLRLSCAASGRIFRYYTMGWYRQAPGKERELVATISWNGSNTYYADSVKGRFTISRDNAKNTVYLQMNSLKPEDTAVYYCAAGVLPGLYNGARLFDYWGHGTQVTVSS” here?
**A.** Its value is “low polyreactivity”.

**Q.** For “QVQLVESGGGLVQAGGSLRLSCAASGRIFSAYAMGWYRQAPGKEREFVAAITQSGGSTYYADSVKGRFTISRDNAKNTVYVQMNSLKPEDTAVYYCAAGDAYYTEALPFGEYDYWGQGTQVTVSS”, which “polyreactivity (PSR sort gate)” value is on record?
**A.** The value was “low polyreactivity”.

**Q.** Which “polyreactivity (PSR sort gate)” value does the source give for “QVQLVESGGGLVQAGGSLRLSCAASGRIFSEYAMGGDRQAPGKERELVATITSGDSTIYADSVKGRFTISRDNAKNTVYVQMNSLKPDDTAVYYCNPDRFADYDYWGHGTQVTVSS” here?
**A.** The value was “low polyreactivity”.

**Q.** For “QVQLVESGGGLVQAGGSLRLSCAASGRIFSFYTMGWYRQAPGKERELVAAITWSGGSTYYADSVKGRFTISRDNAKNTVYLQMNSLKPEDTAVYYCAADFYLGPTWYYYWGQGTQVTVSS”, which “polyreactivity (PSR sort gate)” value is on record?
**A.** Its value is “high polyreactivity”.

**Q.** For “QVQLVESGGGLVQAGGSLRLSCAASGRIFSGNAMGWYRQAPGKERELVAAISWGGGRTYYADSVKGRFTISRDNAKNTVYLQMNSLKPEDTAVFYCNTVRQRARFTKVDYWGQGTQVTVSS”, which “polyreactivity (PSR sort gate)” value is on record?
**A.** The value was “high polyreactivity”.

**Q.** Which “polyreactivity (PSR sort gate)” value does the source give for “QVQLVESGGGLVQAGGSLRLSCAASGRIFSGNGMGWYRQATGKERELVASITWSGTSTYYADSVKGGFTISRDNAKNTVYLQMNSLKPEDTAVYYCNTRTSRRIWYSKSGKRYDYWGQGTQVTVSS” here?
**A.** The value was “high polyreactivity”.

**Q.** Which “polyreactivity (PSR sort gate)” value does the source give for “QVQLVESGGGLVQAGGSLRLSCAASGRIFSGYALGWYRQAPGKERELVAAISQRGGSTTYADSVKGRFTISRDNAKNTVYLQMNSLKPEDTAVYYCAKRYTYPSGYDYWGQGTEVTVSS” here?
**A.** Its value is “low polyreactivity”.

**Q.** Which “polyreactivity (PSR sort gate)” value does the source give for “QVQLVESGGGLVQAGGSLRLSCAASGRIFSGYAMGCYRQAPGKERELVAAITSRSGSTYYADSVKGRFTISRDNAKKTVYLQMNSLKPEDTAVYYCAAEYVRFYWYTSDYWGQGTQVTVSS” here?
**A.** Its value is “low polyreactivity”.

**Q.** Which “polyreactivity (PSR sort gate)” value does the source give for “QVQLVESGGGLVQAGGSLRLSCAASGRIFSGYAMGSYRQAPGKERELVAAITSVGSTNYADSVKGLFTISRDNAKNTVYLQMNSLKPEDTAVFNCAAKRYRPKYEYYYWGLGTQVTVSS” here?
**A.** Its value is “high polyreactivity”.

**Q.** For “QVQLVESGGGLVQAGGSLRLSCAASGRIFSGYAMGWYRQAPGKERELVAAITSRSGSTYYADSVKGRFTISRDNAKNTVYFQMNSLKPEDTAVYYCAAEYVRFYWYTSDYWGQGTQVTVSS”, which “polyreactivity (PSR sort gate)” value is on record?
**A.** The value was “low polyreactivity”.

**Q.** Which “polyreactivity (PSR sort gate)” value does the source give for “QVQLVESGGGLVQAGGSLRLSCAASGRIFSGYAMGWYRQAPGKERELVAAITSVGSTNYADSVKGRFTISRDNAKNTVYLQMNSLKPEDTAVYYCARYSYRGTNVRYDYWGQGTQVTVSS” here?
**A.** Its value is “high polyreactivity”.

**Q.** With “QVQLVESGGGLVQAGGSLRLSCAASGRIFSHNAMGWYRQAPGKERELVAAISRSGGRTYYADSVKGRFTISRYNAKNTVYVQMKSLKPEDTAVYYCAADYRLKKSPGYSGEDDYWGQGTQVTVSS” as the sequence, how does the “polyreactivity (PSR sort gate)” value read?
**A.** The value was “high polyreactivity”.

**Q.** For “QVQLVESGGGLVQAGGSLRLSCAASGRIFSHYAMGWYRQAPGKERELVAAITSDGSTNYADSVKGRFTISRDNAKNTVYLQMNSLKPEDTAVYYCADYDYWGQGTQVTVSS”, which “polyreactivity (PSR sort gate)” value is on record?
**A.** The value was “low polyreactivity”.

**Q.** Which “polyreactivity (PSR sort gate)” value does the source give for “QVQLVESGGGLVQAGGSLRLSCAASGRIFSINVMGWYRHAPGKERELVAAISKRGGSTYYADSVKGRFTISRDNAKNTVYLQMNSLKPEDTAVYYCAARRHYTYGNGPSRGGQMDYWGQGTQVTVSS” here?
**A.** The value was “high polyreactivity”.

**Q.** Which “polyreactivity (PSR sort gate)” value does the source give for “QVQLVESGGGLVQAGGSLRLSCAASGRIFSIYTMGWSRQAPGKERELVAAISASDGSTYYADSVKGRFTISRDNAKNTVYLQMNSLKPEDTAVYYCAIDTYPQKVTYGSFAYDYWGEGTQVTVSS” here?
**A.** The value was “low polyreactivity”.

**Q.** For “QVQLVESGGGLVQAGGSLRLSCAASGRIFSKNAMGWCRQAPGKERELVAGITSNSGSTYYADSVKGRFTISRDNAKNTVYLQMNSLIPEDTAVYYCAARFPHRHYLLYTYDYWGQGTQVTVSS”, which “polyreactivity (PSR sort gate)” value is on record?
**A.** The value was “low polyreactivity”.

**Q.** For “QVQLVESGGGLVQAGGSLRLSCAASGRIFSKNAMGWYRKAPGKERELVAAISWSGGSTYYADSVKGRFTISRDNAKNTVYLQMNSLKPEDTAVYYCAADSPRYGGYGYWGQGTQVTVSS”, which “polyreactivity (PSR sort gate)” value is on record?
**A.** Its value is “low polyreactivity”.

**Q.** Which “polyreactivity (PSR sort gate)” value does the source give for “QVQLVESGGGLVQAGGSLRLSCAASGRIFSKYAMGWYRQAPGKERELVASIRWRGDRTYYADSVKGRFTISRDNAKNTVYLQMNSLKPEDTAVYYCAVETLWQGSEYWVQGTQVTVSS” here?
**A.** The value was “low polyreactivity”.

**Q.** With “QVQLVESGGGLVQAGGSLRLSCAASGRIFSLYAMGWYRQAPGKERELVAAITWSSGSTYYADSVKGRFTISRDNAKNTVYLQMNSLKPEDTAVYYCAARVFTLLGYSYEYWGQGTQVTVSS” as the sequence, how does the “polyreactivity (PSR sort gate)” value read?
**A.** The value was “low polyreactivity”.

**Q.** For “QVQLVESGGGLVQAGGSLRLSCAASGRIFSNNAMGWYRQAPGKERELVAAITNSGGSTYYADSVKGRFTISRDNAKNTVYLQMNSLKPEDTAVYYCAADHLSVQYDVYWTYYYWGQGTQVTVSS”, which “polyreactivity (PSR sort gate)” value is on record?
**A.** The value was “low polyreactivity”.
